Laboratory results as given in the RNAGym collection of RNA variant scans (doi:10.7554/elife.80360).

B1: HDV Ribozyme (parent)
chain: GGCCGGCAUGGUCCCAGCCUCCUCGCUGGCGCCGGCUGGGCAACAUUCCGAGGGGACCGUCCCCUCGGUAAUGGCGAAUGGGACCCA

Variants of: B1
Experiment: self-cleavage, relative activity (ratio to wild type); higher = more cleavage; co-transcriptional

Variant	self-cleavage
GGCCGGCAUGGUCCCAGCCUCCUCUCUGGCGCCGGCUGGGCAACAUUCCGAGGGGACCGUCCCCUCGGUUAUGGCGAAUGGGACCCA [G25U A70U]	0.0852
GGCCGGCAUGGUCCCAGCCUCCUCUCUGGCGCCGGCUGGGCAACAUUCCGAGGGGACCGUCCCCUCGGUGAUGGCGAAUGGGACCCA [G25U A70G]	0.0875
GGCCGGCAUGGUCCCAGCCUCCUCCCUGGCGCCGGCUGGGCAACAUUCCGAGGGGACCGUCCCCUCGGUAAUGGCAAAUGGGACCCA [G25C G76A]	0.0875
GGCCGGCAUGGUCCCAGCCUCCUCCCUGGCGCCGGCUGGGCAACAUUCCGAGGGGACCGUCCCCUCGGUAAUGGCCAAUGGGACCCA [G25C G76C]	0.0723
GGCCGGCAUGGUCCCAGCCUCCUCCCUGGCGCCGGCUGGGCAACAUUCCGAGGGGACCGUCCCCUCGGUAAUGGCUAAUGGGACCCA [G25C G76U]	0.0852
GGCCGGCAUGGUCCCAGCCUCCUCCCUGGCGCCGCCUGGGCAACAUUCCGAGGGGACCGUCCCCUCGGUAAUGGCGAAUGGGACCCA [G25C G35C]	0.115
GGCCGGCAUGGUCCCAGCCUCCUCCCUGGCGCCGGCUGGGCAACAUUCCGAGGGGACCGUCCCCUCGCUAAUGGCGAAUGGGACCCA [G25C G68C]	0.0639
GGCCGGCAUGGUCCCAGCCUCCUCCCUGGCGCCGGCUGGGCAACAUUCCGAGGGGACCGUCCCCUCGGUAAUGGCGAAUGAGACCCA [G25C G81A]	0
GGCCGGCAUGGUCCCAGCCUCCUCCCUGGCGCCGGCUGGGCAACAUUCCGAGGGCACCGUCCCCUCGGUAAUGGCGAAUGGGACCCA [G25C G55C]	0.106
GGCCGGCAUGGUCCCAGCCUCCUCCCUGGCGCCGGCUGGGCAACAUUCCGAGGGGACCGUCCCCCCGGUAAUGGCGAAUGGGACCCA [G25C U65C]	0.0536
GGCCGGCAUGGUCCCAGCCUCCUCUCUGGCGCCGGCUGGGCAACAUUCCGCGGGGACCGUCCCCUCGGUAAUGGCGAAUGGGACCCA [G25U A51C]	0.135
GGCCGGCAUGGUCCCAGCCUCCUCUCUGGCGCCGGCUGGGCAACAUUCCGGGGGGACCGUCCCCUCGGUAAUGGCGAAUGGGACCCA [G25U A51G]	0.266
GGCCGGCAUGGUCCCAGCCUCCUCUCUGGCGCCGGCUGGGCAACAUUCCGAGGGGACCGUCCCCUCGGUAAUGGCGAAUGGGACCCA [G25U]	0.177
GGCCGGCAUGGUCCCAGCCUCCUCUCUGGCGCCGGCUGGGCAUCAUUCCGAGGGGACCGUCCCCUCGGUAAUGGCGAAUGGGACCCA [G25U A43U]	0.0707
GGCCGGCAUGGUCCCAGCCUCCUCUCUGGCGCCGGCUGGGCAGCAUUCCGAGGGGACCGUCCCCUCGGUAAUGGCGAAUGGGACCCA [G25U A43G]	0.0573
GGCCGGCAUGGUCCCAGCCUCCUCUCUGGCGCCGGCUGGGCACCAUUCCGAGGGGACCGUCCCCUCGGUAAUGGCGAAUGGGACCCA [G25U A43C]	0.147
GGCCGGCAUGGUCCCAGCCUCCUCCCUGGCGCCGGCUGCGCAACAUUCCGAGGGGACCGUCCCCUCGGUAAUGGCGAAUGGGACCCA [G25C G39C]	0
GGCCGGCAUGGUCCCAGCCUCCUCCCUGGCGCCGGCUGUGCAACAUUCCGAGGGGACCGUCCCCUCGGUAAUGGCGAAUGGGACCCA [G25C G39U]	0.0978
GGCCGGCAUGGUCCCAGCCUCCUCCCUGGCGCCGGCUGAGCAACAUUCCGAGGGGACCGUCCCCUCGGUAAUGGCGAAUGGGACCCA [G25C G39A]	0.119
GGCCGGCAUGGUCCCAGCCUCCUCCCUGGCGCCCGCUGGGCAACAUUCCGAGGGGACCGUCCCCUCGGUAAUGGCGAAUGGGACCCA [G25C G34C]	0.0426
GGCCGGCAUGGUCCCAGCCUCCUCCCUGGCGCCUGCUGGGCAACAUUCCGAGGGGACCGUCCCCUCGGUAAUGGCGAAUGGGACCCA [G25C G34U]	0
GGCCGGCAUGGUCCCAGCCUCCUCUCUGGCGCCGGCUGGGCUACAUUCCGAGGGGACCGUCCCCUCGGUAAUGGCGAAUGGGACCCA [G25U A42U]	0.173

Variant	self-cleavage
GGCCGGCAUGGUCCCAGCCUCCUCUCUGGCGCCGGCUGGGCCACAUUCCGAGGGGACCGUCCCCUCGGUAAUGGCGAAUGGGACCCA [G25U A42C]	0.135
GGCCGGCAUGGUCCCAGCCUCCUCCCUGGCGCCGGCUGGGCAACAUUCCGAGGGGACCGACCCCUCGGUAAUGGCGAAUGGGACCCA [G25C U60A]	0.256
GGCCGGCAUGGUCCCAGCCUCCUCCCUGGCGCCGGCUGGGCAACAUUCCGAGGGGACCGUCCCCUCGGUAAUGCCGAAUGGGACCCA [G25C G74C]	0
GGCCGGCAUGGUCCCAGCCUCCUCCCUGGCGCCGGCUGGGCAACAUUCCGAGGGGACCGUCCCCUCGGUAAUGACGAAUGGGACCCA [G25C G74A]	0.0639
GGCCGGCAUGGUCCCAGCCUCCUCCCUGGCGCCGGCUGGGCAACAUUCCGAGGGGACCGUCCCCUCGGUAAUGGCGAACGGGACCCA [G25C U79C]	0.0923
GGCCGGCAUGGUCCCAGCCUCCUCCCUGGCGCCGGCUGGGCAACAUUCCGAGGGGACCGUCCCCUCGGUAAUGGCGAAAGGGACCCA [G25C U79A]	0.0615
GGCCGGCAUGGUCCCAGCCUCCUCCCUGGCGCCGGCUGGGCAACAUUCCGAGGGGACCGUCCCCUCGGUAAUGGCGAAGGGGACCCA [G25C U79G]	0.0594
GGCCGGCAUGGUCCCAGCCUCCUCCCUGGCGCCGGCUGGGCAACAUUCCGAGGGGACCGUCCCCUCGGAAAUGGCGAAUGGGACCCA [G25C U69A]	0.166
GGCCGGCAUGGUCCCAGCCUCCUCCCUGGCGCCGGCUGGGCAACAUUCCGAGGGGACCGUCCCCUCGGGAAUGGCGAAUGGGACCCA [G25C U69G]	0
GGCCGGCAUGGUCCCAGCCUCCUCUCUGGCGCCGGCUGGGCAACGUUCCGAGGGGACCGUCCCCUCGGUAAUGGCGAAUGGGACCCA [G25U A45G]	0.401
GGCCGGCAUGGUCCCAGCCUCCUCUCUGGCGCCGGCUGGGCAACCUUCCGAGGGGACCGUCCCCUCGGUAAUGGCGAAUGGGACCCA [G25U A45C]	0.0831
GGCCGGCAUGGUCCCAGCCUCCUCCCAGGCGCCGGCUGGGCAACAUUCCGAGGGGACCGUCCCCUCGGUAAUGGCGAAUGGGACCCA [G25C U27A]	0.175
GGCCGGCAUGGUCCCAGCCUCCUCCCUGGCGCCGGCUGGGCAACAUUCCGACGGGACCGUCCCCUCGGUAAUGGCGAAUGGGACCCA [G25C G52C]	0.166
GGCCGGCAUGGUCCCAGCCUCCUCCCUGGCGCCGGCUGGGCAACAUUCCGAUGGGACCGUCCCCUCGGUAAUGGCGAAUGGGACCCA [G25C G52U]	0.141
GGCCGGCAUGGUCCCAGCCUCCUCCCUGGCGCCGGCUGGGCAACAUGCCGAGGGGACCGUCCCCUCGGUAAUGGCGAAUGGGACCCA [G25C U47G]	0.119
GGCCGGCAUGGUCCCAGCCUCCUCCCUGGCGCCGGCGGGGCAACAUUCCGAGGGGACCGUCCCCUCGGUAAUGGCGAAUGGGACCCA [G25C U37G]	0.0519
GGCCGGCAUGGUCCCAGCCUCCUCCCUGGCGCCGGCUGGGCAACAUUCCGAGGGGACCCUCCCCUCGGUAAUGGCGAAUGGGACCCA [G25C G59C]	0.131
GGCCGGCAUGGUCCCAGCCUCCUCCCUGGCGCCGGCUGGGCAACAUUCCGAGGGGACCAUCCCCUCGGUAAUGGCGAAUGGGACCCA [G25C G59A]	0.0791
GGCCGGCAUGGUCCCAGCCUCCUCCCUGGCGCCGGCUGGGCAACAUUCCGAGGGGACCUUCCCCUCGGUAAUGGCGAAUGGGACCCA [G25C G59U]	0.116
GGCCGGCAUGGUCCCAGCCUCCUCUCUGGCGCCGGCUGGGCAACAUUCCGAGGGGACCGUCCCCUCGGUAAUGGCGAAUGGGGCCCA [G25U A83G]	0.0978
GGCCGGCAUGGUCCCAGCCUCCUCCCUGGCGCCGGCUGGGCAACAUUCCGAGGGGACCGUCCCCUCGGUAAUCGCGAAUGGGACCCA [G25C G73C]	0.0773
GGCCGGCAUGGUCCCAGCCUCCUCCCUGGCGCCGGCUGGGCAACAUUCCGAGGGGACCGUCCCCUCGGUAAUUGCGAAUGGGACCCA [G25C G73U]	0.185

Variant	self-cleavage
GGCCGGCAUGGUCCCAGCCUCCUCCCUGGCGCCGGCUGGGCAACAUUCCCAGGGGACCGUCCCCUCGGUAAUGGCGAAUGGGACCCA [G25C G50C]	0.156
GGCCGGCAUGGUCCCAGCCUCCUCUCUGGCGCCGGCUGGGCAACAUUCCGAGGGGACCGUCCCCUCGGUAAUGGCGGAUGGGACCCA [G25U A77G]	0.145
GGCCGGCAUGGUCCCAGCCUCCUCUCUGGCGCCGGCUGGGCAACAUUCCGAGGGGUCCGUCCCCUCGGUAAUGGCGAAUGGGACCCA [G25U A56U]	0.249
GGCCGGCAUGGUCCCAGCCUCCUCUCUGGCGCCGGCUGGGCAACAUUCCGAGGGGCCCGUCCCCUCGGUAAUGGCGAAUGGGACCCA [G25U A56C]	0.122
GGCCGGCAUGGUCCCAGCCUCCUCUCUGGCGCCGGCUGGGCAACAUUCCGAGGGGGCCGUCCCCUCGGUAAUGGCGAAUGGGACCCA [G25U A56G]	0.0554
GGCCGGCAUGGUCCCAGCCUCCUCUCUGGCGCCGGCUGGGCAACAUUCCGAGGGGACCGUCCCCUCGGUACUGGCGAAUGGGACCCA [G25U A71C]	0.213
GGCCGGCAUGGUCCCAGCCUCCUCUCUGGCGCCGGCUGGGCAACAUUCCGAGGGGACCGUCCCCUCGGUAUUGGCGAAUGGGACCCA [G25U A71U]	0.0396
GGCCGGCAUGGUCCCAGCCUCCUCCCUGGCGCCGGCUAGGCAACAUUCCGAGGGGACCGUCCCCUCGGUAAUGGCGAAUGGGACCCA [G25C G38A]	0.259
GGCCGGCAUGGUCCCAGCCUCCUCCCUGGCCCCGGCUGGGCAACAUUCCGAGGGGACCGUCCCCUCGGUAAUGGCGAAUGGGACCCA [G25C G31C]	0.0978
GGCCGGCAUGGUCCCAGCCUCCUCCCUGGCGCCGGCUGGGCAACAUUCCGAGGGGACCGUCCCCUCGGUAACGGCGAAUGGGACCCA [G25C U72C]	0.123
GGCCGGCAUGGUCCCAGCCUCCUCCCUGGCGCCGGCUGGGCAACAUUCCGAGGGGACCGUCCCCUCGGUAAAGGCGAAUGGGACCCA [G25C U72A]	0.0791
GGCCGGCAUGGUCCCAGCCUCCUCCCUGGCGCCGGCUGGGCAACAUUCCGAGGAGACCGUCCCCUCGGUAAUGGCGAAUGGGACCCA [G25C G54A]	0.219
GGCCGGCAUGGUCCCAGCCUCCUCCCUGGCGCCGGCUGGGCAACAUUCCGAGGUGACCGUCCCCUCGGUAAUGGCGAAUGGGACCCA [G25C G54U]	0.0652
GGCCGGCAUGGUCCCAGCCUCCUCCCUGGCGCCGGCUGGGCAACAUUCCGAGGGGACCGUCCCCUCGGUAAUGGCGAAUCGGACCCA [G25C G80C]	0.17
GGCCGGCAUGGUCCCAGCCUCCUCCCUGGCGCCGGCUGGACAACAUUCCGAGGGGACCGUCCCCUCGGUAAUGGCGAAUGGGACCCA [G25C G40A]	0.0386
GGCCGGCAUGGUCCCAGCCUCCUCCCUGGCGCCGGCUGGGCAACAUUCCGAGGGGACCGUCCCCUCUGUAAUGGCGAAUGGGACCCA [G25C G67U]	0
GGCCGGCAUGGUCCCAGCCUCCUCCCUGGCGCCGGCUGGGCAACAUUCCGAGGGGACCGUCCCCUCCGUAAUGGCGAAUGGGACCCA [G25C G67C]	0.0415
GGCCGGCAUGGUCCCAGCCUCCUCCCUGGCGCCGGCUGGGCAACAUUCCGAGGGGACCGUCCCCUCAGUAAUGGCGAAUGGGACCCA [G25C G67A]	0.123
GGCCGGCAUGGUCCCAGCCUCCUCCCUGGCGCCGGCUGGGCAACAGUCCGAGGGGACCGUCCCCUCGGUAAUGGCGAAUGGGACCCA [G25C U46G]	0
GGCCGGCAUGGUCCCAGCCUCCUCCCUGGCGCCGGCUGGGCAACACUCCGAGGGGACCGUCCCCUCGGUAAUGGCGAAUGGGACCCA [G25C U46C]	0.0875
